Target: the molecule itself
Assay: SEC

B1: cowpea chlorotic mottle virus (CCMV) coat protein (natural protein)
chain: MSTVGTGKLTRAQRRAAARKNKRNTRVVQPVIVEPIASGQGKAIKAWTGYSVSKWTASCAAAEAKVTSAITISLPNELSSERNKQLKVGRVLLWLGLLPSVSGTVKSCVTETQTTAAASFQVALAVADNSKDVVAAMYPEAFKGITLEQLTADLTIYLYSSAALTEGDVIVHLEVEHVRPTFDDSFTPVY
B1: binds.

Source: publication doi:10.1101/2020.10.16.20213991 (medRxiv, 2020)
